This is an account of results in patent US20220204567A1 (published 2022).

Some results are limits rather than exact numbers.

What all share (assay): ELISA
Background: ELISA stands for enzyme-linked immunosorbent assay.

Experiment [1] deals with wild type HA ectodomain of H3 A/Hong Kong/1/1968 with C-terminal Foldon trimerization domain.
The target of experiment [2] is wild type HA ectodomain of H3 A/Indiana/11/2011 with C-terminal Foldon trimerization domain.
The target in experiment [3] is wild type HA ectodomain of H1 A/Michigan/45/2015 with C-terminal Foldon trimerization domain.
Experiment [4] concerns the target UFV4239, wild type HA ectodomain of H1 A/California/07/2009 without Foldon trimerization domain.

What is called EC50 is the midpoint of the concentration-response curve. Lower therefore signals an effect from little substance.

B1: CR9114 (antibody, V domains shown)
VH: QVQLVQSGAEVKKPGSSVKVSCKSSGGTSNNYAISWVRQAPGQGLDWMGGISPIFGSTAYAQKFQGRVTISADIFSNTAYMELNSLTSEDTAVYFCARHGNYYYYSGMDVWGQGTTVTVSS
VL: SYVLTQPPAVSGTPGQRVTISCSGSDSNIGRRSVNWYQQFPGTAPKLLIYSNDQRPSVVPDRFSGSKSGTSASLAISGLQSEDEAEYYCAAWDDSLKGAVFGGGTQLTVL
Take B1: the EC50 in experiment [1] is 12.7 nM; in experiment [2], 25 nM.

B2: CR8020 (antibody, V domains shown)
VH: QVQLQQSGAEVKTPGASVKVSCKASGYTFTSFGVSWIRQAPGQGLEWIGWISAYNGDTYYAQKFQARVTMTTDTSTTTAYMEMRSLRSDDTAVYYCAREPPLFYSSWSLDNWGQGTLVTVSS
VL: EIVLTQSPGTLSLSPGERATLSCRASQSVSMNYLAWFQQKPGQAPRLLIYGASRRATGIPDRISGSGSGTDFTLTISRLEPADFAVYYCQQYGTSPRTFGQGAKVEIK
Take B2: the EC50 in experiment [3] was above 70 nM; in experiment [1], 1.6 nM; in experiment [2] it was 1.9 nM; in experiment [4], above 70 nM.

B3: CR6261 (antibody, V domains shown)
VH: EVQLVESGAEVKKPGSSVKVSCKASGGPFRSYAISWVRQAPGQGPEWMGGIIPIFGTTKYAPKFQGRVTITADDFAGTVYMELSSLRSEDTAMYYCAKHMGYQVRETMDVWGKGTTVTVSS
VL: QSVLTQPPSVSAAPGQKVTISCSGSSSNIGNDYVSWYQQLPGTAPKLLIYDNNKRPSGIPDRFSGSKSGTSATLGITGLQTGDEANYYCATWDRRPTAYVVFGGGTKLTVL
As for B3, the EC50 in experiment [3] is 0.6 nM; in experiment [1], above 70 nM; in experiment [2], above 70 nM; in experiment [4] it was 1 nM.
